Source: the supplement of paper PMC10065799, “High-throughput profiling of sequence recognition by tyrosine kinases and SH2 domains using bacterial peptide display” (eLife, 2023)

What was measured:
Grb2 SH2 = Grb2 SH2 (UniProt P62993); experiment: SH2 binding enrichment of the phosphorylated peptide, bacterial display (enrichment ratio); higher = better substrate or ligand; peptides without Tyr show the background
c-Src SH2 = experiment: as above
SHP2-C SH2 = experiment: as above
EPHB2 = EPHB2 (UniProt P29323); experiment: phosphorylation enrichment, bacterial display (enrichment ratio); higher = better substrate or ligand; peptides without Tyr show the background
Sequence of EPHB2 (P29323 whole entry, looked up): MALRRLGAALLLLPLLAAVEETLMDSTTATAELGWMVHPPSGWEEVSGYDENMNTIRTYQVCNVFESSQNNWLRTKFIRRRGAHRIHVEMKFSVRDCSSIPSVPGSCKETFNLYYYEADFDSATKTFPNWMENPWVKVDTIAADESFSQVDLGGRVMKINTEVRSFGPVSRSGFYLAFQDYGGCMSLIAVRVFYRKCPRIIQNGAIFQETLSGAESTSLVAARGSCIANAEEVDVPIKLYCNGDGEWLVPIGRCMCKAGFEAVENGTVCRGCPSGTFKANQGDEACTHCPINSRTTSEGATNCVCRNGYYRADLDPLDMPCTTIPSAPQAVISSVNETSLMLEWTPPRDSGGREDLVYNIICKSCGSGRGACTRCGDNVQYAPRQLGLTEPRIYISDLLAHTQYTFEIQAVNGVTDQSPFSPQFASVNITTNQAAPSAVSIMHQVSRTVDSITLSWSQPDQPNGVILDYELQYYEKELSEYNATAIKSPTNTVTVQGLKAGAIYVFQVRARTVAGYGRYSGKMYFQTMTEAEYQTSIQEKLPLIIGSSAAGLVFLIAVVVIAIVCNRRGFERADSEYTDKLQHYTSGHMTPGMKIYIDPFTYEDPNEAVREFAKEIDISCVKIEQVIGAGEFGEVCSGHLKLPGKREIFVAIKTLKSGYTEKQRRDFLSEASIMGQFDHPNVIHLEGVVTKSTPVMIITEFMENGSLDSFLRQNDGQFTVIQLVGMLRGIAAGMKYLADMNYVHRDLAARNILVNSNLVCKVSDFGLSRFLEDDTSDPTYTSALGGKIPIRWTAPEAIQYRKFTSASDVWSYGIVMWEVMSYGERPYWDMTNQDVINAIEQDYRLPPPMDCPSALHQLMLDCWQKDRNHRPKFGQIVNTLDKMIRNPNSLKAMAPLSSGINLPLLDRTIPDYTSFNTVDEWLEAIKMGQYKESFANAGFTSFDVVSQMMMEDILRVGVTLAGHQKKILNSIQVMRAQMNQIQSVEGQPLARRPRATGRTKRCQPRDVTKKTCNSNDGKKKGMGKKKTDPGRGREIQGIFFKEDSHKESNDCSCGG

EPHB1 = EPHB1 (UniProt P54762); experiment: as above
FGFR3 = FGFR3 (UniProt P22607); experiment: as above
Sequence of FGFR3 (P22607 whole entry, looked up): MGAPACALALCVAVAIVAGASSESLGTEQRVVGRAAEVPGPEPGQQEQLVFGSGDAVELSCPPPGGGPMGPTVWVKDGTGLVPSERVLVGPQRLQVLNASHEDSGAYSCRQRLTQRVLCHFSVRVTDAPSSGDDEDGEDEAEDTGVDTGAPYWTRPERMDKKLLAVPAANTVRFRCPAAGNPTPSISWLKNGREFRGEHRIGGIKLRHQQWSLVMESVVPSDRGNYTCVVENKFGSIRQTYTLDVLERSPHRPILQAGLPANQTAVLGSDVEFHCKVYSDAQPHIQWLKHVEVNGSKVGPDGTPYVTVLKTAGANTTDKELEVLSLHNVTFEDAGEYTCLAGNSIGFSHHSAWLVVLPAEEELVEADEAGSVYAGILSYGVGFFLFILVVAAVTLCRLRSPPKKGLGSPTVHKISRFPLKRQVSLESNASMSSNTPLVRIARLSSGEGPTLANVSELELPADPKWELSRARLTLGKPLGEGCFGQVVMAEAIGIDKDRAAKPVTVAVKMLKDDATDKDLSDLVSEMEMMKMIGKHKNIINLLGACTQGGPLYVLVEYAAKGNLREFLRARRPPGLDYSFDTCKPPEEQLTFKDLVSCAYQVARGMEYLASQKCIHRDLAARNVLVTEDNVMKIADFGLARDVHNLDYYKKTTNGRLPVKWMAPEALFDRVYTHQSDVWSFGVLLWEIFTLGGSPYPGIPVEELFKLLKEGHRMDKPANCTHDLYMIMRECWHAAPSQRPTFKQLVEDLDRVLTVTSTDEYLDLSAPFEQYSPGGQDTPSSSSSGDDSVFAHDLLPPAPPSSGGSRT

MERTK = MERTK (UniProt Q12866); experiment: as above
Sequence of MERTK (Q12866 whole entry, looked up): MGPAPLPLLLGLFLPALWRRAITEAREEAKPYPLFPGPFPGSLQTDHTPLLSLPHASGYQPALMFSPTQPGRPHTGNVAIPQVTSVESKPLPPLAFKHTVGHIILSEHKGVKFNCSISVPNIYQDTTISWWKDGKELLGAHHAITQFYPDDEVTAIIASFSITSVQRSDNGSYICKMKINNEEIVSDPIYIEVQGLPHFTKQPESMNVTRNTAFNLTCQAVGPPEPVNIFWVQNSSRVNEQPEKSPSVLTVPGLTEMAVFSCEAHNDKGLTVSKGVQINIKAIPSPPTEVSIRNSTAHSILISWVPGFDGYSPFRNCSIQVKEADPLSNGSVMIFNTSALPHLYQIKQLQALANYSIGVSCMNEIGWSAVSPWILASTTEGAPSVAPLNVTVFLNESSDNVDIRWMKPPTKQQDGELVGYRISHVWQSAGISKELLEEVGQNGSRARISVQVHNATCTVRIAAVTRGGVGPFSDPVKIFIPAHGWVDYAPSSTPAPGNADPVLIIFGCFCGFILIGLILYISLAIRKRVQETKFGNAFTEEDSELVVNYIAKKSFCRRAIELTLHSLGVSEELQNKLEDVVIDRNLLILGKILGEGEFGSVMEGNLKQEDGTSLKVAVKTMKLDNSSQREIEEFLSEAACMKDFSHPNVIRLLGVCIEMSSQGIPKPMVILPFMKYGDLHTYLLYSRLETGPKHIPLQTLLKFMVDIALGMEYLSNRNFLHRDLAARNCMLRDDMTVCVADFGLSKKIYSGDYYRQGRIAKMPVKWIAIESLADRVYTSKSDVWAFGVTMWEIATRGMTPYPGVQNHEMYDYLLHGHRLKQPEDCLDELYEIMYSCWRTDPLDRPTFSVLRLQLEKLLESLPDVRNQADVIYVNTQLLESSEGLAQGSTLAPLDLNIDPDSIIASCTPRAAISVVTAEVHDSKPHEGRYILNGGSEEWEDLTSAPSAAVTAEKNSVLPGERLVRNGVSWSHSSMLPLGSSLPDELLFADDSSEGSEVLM

c-Src = experiment: as above
c-Abl (mouse) = experiment: as above
Hck = Hck (UniProt P08631); experiment: as above
Sequence of Hck (P08631 whole entry, looked up): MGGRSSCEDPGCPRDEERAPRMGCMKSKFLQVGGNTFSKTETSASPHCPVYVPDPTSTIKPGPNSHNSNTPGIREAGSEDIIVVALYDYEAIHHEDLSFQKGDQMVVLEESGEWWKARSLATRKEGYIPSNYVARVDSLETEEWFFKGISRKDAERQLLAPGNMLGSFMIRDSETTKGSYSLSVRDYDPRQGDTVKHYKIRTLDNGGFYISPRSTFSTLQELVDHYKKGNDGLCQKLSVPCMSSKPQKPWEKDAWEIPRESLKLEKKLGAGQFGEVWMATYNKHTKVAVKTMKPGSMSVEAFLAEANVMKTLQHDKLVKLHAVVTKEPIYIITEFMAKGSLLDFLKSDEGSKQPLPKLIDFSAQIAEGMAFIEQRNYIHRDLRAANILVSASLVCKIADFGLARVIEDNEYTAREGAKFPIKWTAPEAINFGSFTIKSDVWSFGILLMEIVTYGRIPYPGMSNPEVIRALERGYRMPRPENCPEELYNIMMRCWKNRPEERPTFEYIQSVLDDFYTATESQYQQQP

Jak2 = Jak2 (UniProt O60674); experiment: as above
Fes = Fes (UniProt P07332); experiment: as above
Fyn = Fyn (UniProt P06241); experiment: as above
Sequence of Fyn (P06241 whole entry, looked up): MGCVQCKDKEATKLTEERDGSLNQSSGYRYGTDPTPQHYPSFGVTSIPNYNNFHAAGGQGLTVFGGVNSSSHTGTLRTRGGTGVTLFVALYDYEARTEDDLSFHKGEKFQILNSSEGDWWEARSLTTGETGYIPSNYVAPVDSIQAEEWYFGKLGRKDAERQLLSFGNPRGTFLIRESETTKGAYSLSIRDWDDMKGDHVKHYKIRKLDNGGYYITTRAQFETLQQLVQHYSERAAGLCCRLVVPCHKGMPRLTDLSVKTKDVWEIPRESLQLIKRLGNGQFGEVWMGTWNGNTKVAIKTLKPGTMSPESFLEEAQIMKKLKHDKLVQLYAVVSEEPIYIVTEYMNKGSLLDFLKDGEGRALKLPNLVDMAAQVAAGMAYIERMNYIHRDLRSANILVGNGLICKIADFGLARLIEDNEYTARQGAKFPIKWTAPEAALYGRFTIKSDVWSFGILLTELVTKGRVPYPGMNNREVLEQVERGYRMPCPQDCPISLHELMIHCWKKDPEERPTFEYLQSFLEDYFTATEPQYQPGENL

Fer (mouse) = experiment: as above
AncSZ = experiment: as above
FGFR1 = FGFR1 (UniProt P11362); experiment: as above
Sequence of FGFR1 (P11362 whole entry, looked up, the tested form may be a part): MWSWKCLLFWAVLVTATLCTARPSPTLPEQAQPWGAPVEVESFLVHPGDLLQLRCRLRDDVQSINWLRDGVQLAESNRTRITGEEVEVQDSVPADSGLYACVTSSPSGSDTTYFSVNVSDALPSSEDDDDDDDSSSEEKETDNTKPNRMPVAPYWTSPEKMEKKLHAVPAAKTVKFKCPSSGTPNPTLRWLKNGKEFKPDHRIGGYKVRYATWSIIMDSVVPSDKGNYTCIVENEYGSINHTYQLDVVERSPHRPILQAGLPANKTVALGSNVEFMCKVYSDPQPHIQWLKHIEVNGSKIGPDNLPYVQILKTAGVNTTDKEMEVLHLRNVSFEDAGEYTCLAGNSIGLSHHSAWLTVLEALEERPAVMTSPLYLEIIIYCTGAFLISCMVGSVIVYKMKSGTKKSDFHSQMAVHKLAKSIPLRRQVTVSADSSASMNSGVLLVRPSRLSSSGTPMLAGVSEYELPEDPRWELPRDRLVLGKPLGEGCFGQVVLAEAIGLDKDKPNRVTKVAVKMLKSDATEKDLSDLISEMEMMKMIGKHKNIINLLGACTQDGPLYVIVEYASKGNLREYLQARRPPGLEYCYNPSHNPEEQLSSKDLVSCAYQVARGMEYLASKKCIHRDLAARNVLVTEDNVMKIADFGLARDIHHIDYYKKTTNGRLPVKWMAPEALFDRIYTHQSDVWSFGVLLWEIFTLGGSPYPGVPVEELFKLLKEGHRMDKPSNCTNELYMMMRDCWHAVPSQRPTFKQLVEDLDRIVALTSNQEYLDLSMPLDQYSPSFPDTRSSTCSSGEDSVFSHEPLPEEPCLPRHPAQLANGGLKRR
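Throughout, for SH2 binding enrichment of the phosphorylated peptide, bacterial display: peptide library displayed on the E. coli surface as eCPX fusions, selected cells deep-sequenced, score is each peptide's frequency after selection divided by its frequency in the input.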
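Throughout, for phosphorylation enrichment, bacterial display: 11-residue human phosphosite peptides and single-mutation variants displayed on the E. coli surface, counted by deep sequencing, each peptide's frequency after selection divided by its frequency in the unselected input library; frequency after pTyr selection over input frequency; kinase dosed for 20-30% of maximal phosphorylation in three min.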

Sequence of Grb2 SH2 (P62993 whole entry, looked up): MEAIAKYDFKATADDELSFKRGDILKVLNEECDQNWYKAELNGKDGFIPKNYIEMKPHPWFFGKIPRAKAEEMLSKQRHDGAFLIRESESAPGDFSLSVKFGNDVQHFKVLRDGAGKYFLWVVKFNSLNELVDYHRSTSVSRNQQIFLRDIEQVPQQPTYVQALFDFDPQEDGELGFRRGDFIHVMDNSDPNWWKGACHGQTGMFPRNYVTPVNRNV

Row | Sequence | SH2 binding enrichment (Grb2 SH2) | SH2 binding enrichment (c-Src SH2) | SH2 binding enrichment (SHP2-C SH2) | phosphorylation enrichment (EPHB2) | phosphorylation enrichment (EPHB1) | phosphorylation enrichment (FGFR3) | phosphorylation enrichment (MERTK) | phosphorylation enrichment (c-Src) | phosphorylation enrichment (c-Abl (mouse)) | phosphorylation enrichment (Hck) | phosphorylation enrichment (Jak2) | phosphorylation enrichment (Fes) | phosphorylation enrichment (Fyn) | phosphorylation enrichment (Fer (mouse)) | phosphorylation enrichment (AncSZ) | phosphorylation enrichment (FGFR1)
1 | DRTVNYVLKCR [PLEKHG4_Y1068] | 0.728 | 0.83 | 0.61 | 0.67 | 0.668 | 0.778 | 0.357 | 0.43 | 0.764 | 0.688 | 0.898 | 1.17 | 0.515 | 0.566 | 1.15 | 0.517
2 | DRVALYIAREG [AACS_Y117] | 0.896 | 0.487 | 0.928 | 0.534 | 0.671 | 0.717 | 0.395 | 0.432 | 0.731 | 0.569 | 1.02 | 1.14 | 0.468 | 0.484 | 0.957 | 0.519
3 | DRVALYVAREG [AACS_Y117_I118V] | 0.825 | 0.425 | 0.644 | 0.763 | 0.621 | 0.705 | 0.291 | 0.367 | 0.589 | 0.68 | 0.823 | 1.01 | 0.467 | 0.498 | 0.8 | 0.503
4 | DSIRDYEDGME [CLNS1A_Y214] | 0.851 | 0.579 | 0.859 | 0.784 | 0.749 | 0.729 | 0.599 | 0.521 | 0.844 | 0.612 | 1.66 | 1.26 | 0.647 | 0.49 | 1.29 | 0.628
5 | DSYSSYCNAVA [SLC20A2_Y436] | 0.796 | 1.1 | 0.688 | 0.995 | 0.729 | 0.664 | 0.788 | 0.84 | 0.771 | 0.788 | 0.859 | 1.23 | 0.819 | 0.687 | 1.44 | 0.904
6 | DVELLYPLKEK [EPHX1_Y283_V285L] | 0.893 | 0.448 | 0.787 | 0.438 | 0.395 | 0.751 | 0.426 | 0.439 | 0.695 | 0.495 | 0.866 | 1 | 0.484 | 0.422 | 1.08 | 0.452
7 | DVYVSYDCGKS [SORL1_Y139_Y141C] | 0.82 | 0.476 | 0.791 | 1.93 | 1.47 | 1.81 | 1.04 | 3.94 | 0.862 | 3.12 | 0.895 | 1.1 | 6.11 | 0.985 | 1.6 | 1.79
8 | DYCDLYGGEKF [PTPN11_Y66_Y63C] | 0.839 | 0.724 | 0.525 | 2.14 | 2.93 | 2.56 | 0.477 | 2.39 | 0.747 | 2.31 | 0.914 | 1.05 | 1.39 | 0.967 | 1.72 | 3.45
9 | DYYDLYGGQKF [PTPN11_Y66_E69Q] | 0.86 | 0.666 | 0.865 | 8.29 | 8.34 | 13.5 | 5.66 | 6.47 | 0.814 | 8.28 | 5.14 | 1.02 | 7.93 | 2.32 | 2.69 | 15.9
10 | EAEALYQTTFQ [KRT73_Y325_K328T] | 0.804 | 0.483 | 0.739 | 1.53 | 1.27 | 0.972 | 4.9 | 4.32 | 2.1 | 4.59 | 1.13 | 1.27 | 3.38 | 11.9 | 1.98 | 0.644
11 | EALDFYGEVRT [PTEN_Y155] | 0.635 | 0.458 | 0.643 | 0.65 | 0.829 | 0.872 | 0.37 | 1.01 | 0.825 | 0.918 | 1.51 | 1.39 | 1 | 0.707 | 1.23 | 0.501
12 | EAMSDYKKQLR [SPATA18_Y229] | 0.852 | 0.438 | 1.05 | 0.413 | 0.418 | 0.605 | 0.393 | 0.452 | 0.442 | 0.383 | 0.563 | 0.651 | 0.316 | 0.405 | 0.594 | 0.378
13 | EARRVYGDIIH [ALDH5A1_Y175] | 0.977 | 0.445 | 0.561 | 0.378 | 0.41 | 0.447 | 0.408 | 0.499 | 0.596 | 0.42 | 0.517 | 0.707 | 0.514 | 0.477 | 0.608 | 0.426
14 | EEEFFYEKAIL [BCCIP_Y257] | 0.981 | 0.655 | 0.685 | 0.648 | 0.622 | 0.895 | 0.847 | 0.89 | 1.1 | 0.811 | 1.34 | 1.55 | 0.633 | 5.34 | 1.93 | 0.671
15 | EEQKKNYNAMK [SCN5A_Y1494_Y1494N] | 0.815 | 0.443 | 0.595 | 0.364 | 0.389 | 0.399 | 0.395 | 0.415 | 0.497 | 0.351 | 0.55 | 0.663 | 0.291 | 0.336 | 0.572 | 0.433
16 | EEQKKYSNAMK [SCN5A_Y1494_Y1495S] | 0.82 | 0.497 | 0.617 | 0.539 | 0.429 | 0.529 | 0.327 | 0.404 | 0.772 | 0.37 | 0.56 | 0.723 | 0.377 | 0.353 | 0.611 | 0.456
